Assay results published in patent publication US11278600B2, “Human alpha-galactosidase variants” (Codexis, Inc., priority 2014, dated 2022).

Columns and labels:
Type in all cases: biochemical
[1] = HTP-analysis of supernatants pretreated with acid (MUGal hydrolysis); details: activity of the variant/activity of Rd4BB (SEQ ID NO: 15); challenge at pH 3.7
In short: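 GLA variants were secreted from INVSc1 yeast grown 66-84 h at 30° C. in SD-Ura with 2% glucose; supernatants were mixed with McIlvaine buffer pH 3.3-4.3 and held at 37° C. for 1-3 h. Residual activity on MUGal at pH 4.8 was then measured by fluorescence.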

[2] = HTP-analysis of supernatants pretreated with base (MUGal hydrolysis); details: activity of the variant/activity of Rd4BB (SEQ ID NO: 15); challenge at pH 9.65
In short: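 Fluorescence of released 4-MU (Ex 355 nm, Em 448 nm) after carbonate quench reports MUGal hydrolysis by GLA variants secreted from INVSc1 yeast. Before the acidic (pH 4.3-4.8) 30-180 min reaction at 37° C, supernatants had been pre-incubated at pH 7.0-9.7 for 1-18 h at 37° C.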

[3] = HTP-analysis of yeast culture supernatants, no challenge (MUGal hydrolysis); details: activity of the variant/activity of Rd4BB (SEQ ID NO: 15)
In short: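 GLA variants were expressed in INVSc1 yeast grown in SD-Ura broth with glucose at 30° C., and culture supernatants were collected after 66-84 h. Supernatant was mixed with McIlvaine buffer pH 4.8 and MUGal (2 mM stock) in 50 mM citrate, 200 mM KCl, pH 4.6, incubated at 37° C. for 30-180 minutes, then quenched with sodium carbonate.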

| Molecule | Relative Activity of GLA Variants After Challenge at pH 3.7 [1] | Relative Activity of GLA Variants After Challenge at pH 9.65 [2] | Relative Activity of GLA Variants After No Challenge (NC) [3] |
| --- | --- | --- | --- |
| 447 (protein, Synthetic Polypeptide sequence of Variant No. 447 of mature Human GLA) LDNGLARTPTMGWLHWERFMCNLDCQEEPDSCISEKLFMEMAERMVSEGWKDAGYEYLCIDDCWMAPQRDSEGRLQADPQRFPHGIRQLANYVHSKGLKLGIYADVGNKTCAGFPGSFGYYDIDAQTFADWGVDLLKFDGCYCDSLENLADGYKHMSLALNRTGRSIVYSCEWPLYMWPFQKPNYTEIRQYCNHWRNFADIDDSWKSIKSILDWTSRNQERIVDVAGPGGWNDPDMLVIGNFGLSWDQQVTQMALWAIMAAPWFMSNDLRHISPQAKALLQDKDVIAINQDPLGKQGYQLRKGDNFEVWERPLSGDAWAVAIINRQEIGGPRSYTIPVASLGKGVACNPACFITQLLPVKRQLGFYNWTSRLKSHINPTGTVLLQLENTMQMSLKDLL | − (<0.5 relative activity over Rd4BB (SEQ ID NO: 15)) | − (<0.5 relative activity over Rd4BB (SEQ ID NO: 15)) | + (0.5 to 1.5 relative activity over Rd4BB (SEQ ID NO: 15)) |
| 366 (protein, Synthetic Polypeptide sequence of Variant No. 366 of mature Human GLA) LDNGLARTPTMGWLHWERFMCNLDCQEEPDSCISEKLFMEMAERMVVEGWKDAGYEYLCIDDCWMAPQRDSEGRLQADPQRFPHGIRQLANYVHSKGLKLGIYADVGNKTCAGFPGSFGYYDIDAQTFADWGVDLLKFDGCYCDSLENLADGYKHMSLALNRTGRSIVYSCEWPLYMWPFQKPNYTEIRQYCNHWRNFADIDDSWKSIKSILDWTSRNQERIVDVAGPGGWNDPDMLVIGNFGLSWDQQVTQMALWAIMAAPLFMSNDLRHISPQAKALLQDKDVIAINQDPLGKQGYQLRKGDNFEVWERPLSGDAWAVAIINRQEIGGPRSYTIPVASLGKGVACNPACFITQLLPVKRQLGFYNWTSRLKSHINPTGTVLLQLENTMQMSLKDLL | + (0.5 to 1.5 relative activity over Rd4BB (SEQ ID NO: 15)) | + (0.5 to 1.5 relative activity over Rd4BB (SEQ ID NO: 15)) | + (0.5 to 1.5 relative activity over Rd4BB (SEQ ID NO: 15)) |
| 451 (protein, Synthetic Polypeptide sequence of Variant No. 451 of mature Human GLA) LDNGLARTPTMGWLHWERFMCNLDCQEEPDSCISEKLFMEMAERMVSEGWKDAGYEYLCIDDCWMAPQRDSEGRLQADPQRFPHGIRQLANYVHSKGLKLGIYADVGNKTCAGFPGSFGYYDIDAQTFADWGVDLLKFDGCYCDSLENLADGYKHMSLALNRTGRSIVYSCEWPLYMWPFQKPNYTEIRQYCNHWRNFADIDDSWKSIKSILDWTSRNQERIVDVAGPGGWNDPDMLVIGNFGLSWDQQVTQMALWAIVAAPLFMSNDLRHISPQAKALLQDKDVIAINQDPLGKQGYQLRKGDNFEVWERPLSGDAWAVAIINRQEIGGPRSYTIPVASLGKGVACNPACFITQLLPVKRQLGFYNWTSRLKSHINPTGTVLLQLENTMQMSLKDLL | ++ (>1.5 to 2.5 relative activity over Rd4BB (SEQ ID NO: 15)) | − (<0.5 relative activity over Rd4BB (SEQ ID NO: 15)) | + (0.5 to 1.5 relative activity over Rd4BB (SEQ ID NO: 15)) |
| 449 (protein, Synthetic Polypeptide sequence of Variant No. 449 of mature Human GLA) LDNGLARTPTMGWLHWERFMCNLDCQEEPDSCISEKLFMEMAERMVSEGWKDAGYEYLCIDDCWMAPQRDSEGRLQADPQRFPHGIRQLANYVHSKGLKLGIYADVGNKTCAGFPGSFGYYDIDAQTFADWGVDLLKFDGCYCDSLENLADGYKHMSLALNRTGRSIVYSCEWPLYMWPFQKPNYTEIRQYCNHWRNFADIDDSWKSIKSILDWTSRNQERIVDVAGPGGWNDPDMLVIGNFGLSWDQQVTQMATWAIMAAPLFMSNDLRHISPQAKALLQDKDVIAINQDPLGKQGYQLRKGDNFEVWERPLSGDAWAVAIINRQEIGGPRSYTIPVASLGKGVACNPACFITQLLPVKRQLGFYNWTSRLKSHINPTGTVLLQLENTMQMSLKDLL | ++ (>1.5 to 2.5 relative activity over Rd4BB (SEQ ID NO: 15)) | − (<0.5 relative activity over Rd4BB (SEQ ID NO: 15)) | + (0.5 to 1.5 relative activity over Rd4BB (SEQ ID NO: 15)) |
| 448 (protein, Synthetic Polypeptide sequence of Variant No. 448 of mature Human GLA) LDNGLARTPTMGWLHWERFMCNLDCQEEPDSCISEKLFMEMAERMVSEGWKDAGYEYLCIDDCWMAPQRDSEGRLQADPQRFPHGIRQLANYVHSKGLKLGIYADVGNKTCAGFPGSFGYYDIDAQTFADWGVDLLKFDGCYCDSLENLADGYKHMSLALNRTGRSIVYSCEWPLYMWPFQKPNYTEIRQYCNHWRNFADIDDSWKSIKSILDWTSRNQERIVDVAGPGGWNDPDMLVIGNFGLSWDQQVTQMALWAIMAAPLFMSNDLQHISPQAKALLQDKDVIAINQDPLGKQGYQLRKGDNFEVWERPLSGDAWAVAIINRQEIGGPRSYTIPVASLGKGVACNPACFITQLLPVKRQLGFYNWTSRLKSHINPTGTVLLQLENTMQMSLKDLL | − (<0.5 relative activity over Rd4BB (SEQ ID NO: 15)) | − (<0.5 relative activity over Rd4BB (SEQ ID NO: 15)) | + (0.5 to 1.5 relative activity over Rd4BB (SEQ ID NO: 15)) |
| 450 (protein, Synthetic Polypeptide sequence of Variant No. 450 of mature Human GLA) LDNGLARTPTMGWLHWERFMCNLDCQEEPDSCISEKLFMEMAERMVSEGWKDAGYEYLCIDDCWMAPQRDSEGRLQADPQRFPHGIRQLANYVHSKGLKLGIYADVGNKTCAGFPGSFGYYDIDAQTFADWGVDLLKFDGCYCDSLENLADGYKHMSLALNRTGRSIVYSCEWPLYMWPFQKPNYTEIRQYCNHWRNFADIDDSWKSIKSILDWTSRNQERIVDVAGPGGWNDPDMLVIGNFGLSWDQQVTQMALWAMMAAPLFMSNDLRHISPQAKALLQDKDVIAINQDPLGKQGYQLRKGDNFEVWERPLSGDAWAVAIINRQEIGGPRSYTIPVASLGKGVACNPACFITQLLPVKRQLGFYNWTSRLKSHINPTGTVLLQLENTMQMSLKDLL | ++ (>1.5 to 2.5 relative activity over Rd4BB (SEQ ID NO: 15)) | − (<0.5 relative activity over Rd4BB (SEQ ID NO: 15)) | + (0.5 to 1.5 relative activity over Rd4BB (SEQ ID NO: 15)) |
